Experimental findings from article PMC7927433 (The Journal of Experimental Medicine, 2020) are described below.

This experiment has as its target T1, recombinant XPF-HA (human, UniProt Q92889 1-916).
T1 sequence: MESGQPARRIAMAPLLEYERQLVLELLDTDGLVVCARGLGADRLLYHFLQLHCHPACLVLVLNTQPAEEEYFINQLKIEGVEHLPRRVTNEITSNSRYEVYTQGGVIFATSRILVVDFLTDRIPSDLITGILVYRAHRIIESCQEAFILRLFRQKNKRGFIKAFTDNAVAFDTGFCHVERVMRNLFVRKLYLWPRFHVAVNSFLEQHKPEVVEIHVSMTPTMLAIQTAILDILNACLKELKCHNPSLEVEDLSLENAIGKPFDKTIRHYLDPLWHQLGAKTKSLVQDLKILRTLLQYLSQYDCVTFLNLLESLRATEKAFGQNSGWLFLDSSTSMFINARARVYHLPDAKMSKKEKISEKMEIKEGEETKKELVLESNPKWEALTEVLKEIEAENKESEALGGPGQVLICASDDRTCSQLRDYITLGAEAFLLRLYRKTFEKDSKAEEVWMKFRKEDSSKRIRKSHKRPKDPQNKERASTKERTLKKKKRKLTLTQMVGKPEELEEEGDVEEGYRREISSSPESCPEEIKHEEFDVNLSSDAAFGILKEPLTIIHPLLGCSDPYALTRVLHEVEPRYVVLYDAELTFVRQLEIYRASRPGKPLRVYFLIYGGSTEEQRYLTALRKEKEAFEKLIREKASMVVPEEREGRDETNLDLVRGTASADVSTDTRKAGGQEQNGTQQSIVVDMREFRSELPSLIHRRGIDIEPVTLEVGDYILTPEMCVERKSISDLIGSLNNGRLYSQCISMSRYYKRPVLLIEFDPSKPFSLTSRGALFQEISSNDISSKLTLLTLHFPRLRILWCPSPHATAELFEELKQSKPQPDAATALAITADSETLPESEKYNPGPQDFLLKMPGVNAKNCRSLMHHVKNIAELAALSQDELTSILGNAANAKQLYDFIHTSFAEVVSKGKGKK
The experiment in a line: SEC. (Size exclusion chromatography separates by hydrodynamic size, large species first.)

B1: recombinant ERCC1^R156W-His (natural protein)
chain: MDPGKDKEGVPQPSGPPARKKFVIPLDEDEVPPGVAKPLFRSTQSLPTVDTSAQAAPQTYAEYAISQPLEGAGATCPTGSEPLAGETPNQALKPGAKSNSIIVSPRQRGNPVLKFVRNVPWEFGDVIPDYVLGQSTCALFLSLRYHNLHPDYIHGWLQSLGKNFALRVLLVQVDVKDPQQALKELAKMCILADCTLILAWSPEEAGRYLETYKAYEQKPADLLMEKLEQDFVSRVTECLTTVKSVNKTDSQTLLTTFGSLEQLIAASREDLALCPGLGPQKARRLFDVLHEPFLKVP
Take B1: the binding result was “binds”.
